Data set [1] has as its target T1, Dis3L2 wild type (mouse, UniProt Q8CI75 1-870).
T1 sequence: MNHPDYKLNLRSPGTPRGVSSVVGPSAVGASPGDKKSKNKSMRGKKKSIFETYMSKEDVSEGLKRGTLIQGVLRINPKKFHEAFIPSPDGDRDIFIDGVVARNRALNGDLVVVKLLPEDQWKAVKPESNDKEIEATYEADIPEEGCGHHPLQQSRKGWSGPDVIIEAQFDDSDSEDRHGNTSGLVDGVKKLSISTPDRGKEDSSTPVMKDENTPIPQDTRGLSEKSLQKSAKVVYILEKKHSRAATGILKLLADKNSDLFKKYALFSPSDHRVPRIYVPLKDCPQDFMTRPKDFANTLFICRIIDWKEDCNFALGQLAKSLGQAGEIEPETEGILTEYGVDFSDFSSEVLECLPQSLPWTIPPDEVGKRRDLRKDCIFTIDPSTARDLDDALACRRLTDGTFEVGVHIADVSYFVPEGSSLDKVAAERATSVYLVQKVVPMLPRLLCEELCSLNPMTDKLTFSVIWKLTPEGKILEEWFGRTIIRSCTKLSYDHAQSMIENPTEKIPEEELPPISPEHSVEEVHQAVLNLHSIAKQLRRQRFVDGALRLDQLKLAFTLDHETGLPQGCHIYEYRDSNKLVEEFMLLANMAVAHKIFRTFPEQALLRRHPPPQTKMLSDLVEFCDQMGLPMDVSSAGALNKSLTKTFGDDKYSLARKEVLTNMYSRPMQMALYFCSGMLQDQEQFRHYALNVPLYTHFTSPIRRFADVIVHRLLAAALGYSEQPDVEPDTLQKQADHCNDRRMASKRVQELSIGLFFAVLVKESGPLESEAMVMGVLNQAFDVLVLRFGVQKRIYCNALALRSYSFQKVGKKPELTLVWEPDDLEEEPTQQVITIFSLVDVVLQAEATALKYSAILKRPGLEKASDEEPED
The data set can be described thus: filter binding.

Data set [2] has as its target T1, Dis3L2 wild type. The data set is described as follows: filter binding. This is another data set of the same source.
Data set [3] has as its target T1, Dis3L2 wild type. The data set can be described thus: filter binding. This is another data set of the same source.
Data set [4] concerns the target T2, Dis3L2 truncated D389N (crystal construct) (mouse, UniProt Q8CI75 37-857, D389N;del148-169;del194-221).
T2 sequence: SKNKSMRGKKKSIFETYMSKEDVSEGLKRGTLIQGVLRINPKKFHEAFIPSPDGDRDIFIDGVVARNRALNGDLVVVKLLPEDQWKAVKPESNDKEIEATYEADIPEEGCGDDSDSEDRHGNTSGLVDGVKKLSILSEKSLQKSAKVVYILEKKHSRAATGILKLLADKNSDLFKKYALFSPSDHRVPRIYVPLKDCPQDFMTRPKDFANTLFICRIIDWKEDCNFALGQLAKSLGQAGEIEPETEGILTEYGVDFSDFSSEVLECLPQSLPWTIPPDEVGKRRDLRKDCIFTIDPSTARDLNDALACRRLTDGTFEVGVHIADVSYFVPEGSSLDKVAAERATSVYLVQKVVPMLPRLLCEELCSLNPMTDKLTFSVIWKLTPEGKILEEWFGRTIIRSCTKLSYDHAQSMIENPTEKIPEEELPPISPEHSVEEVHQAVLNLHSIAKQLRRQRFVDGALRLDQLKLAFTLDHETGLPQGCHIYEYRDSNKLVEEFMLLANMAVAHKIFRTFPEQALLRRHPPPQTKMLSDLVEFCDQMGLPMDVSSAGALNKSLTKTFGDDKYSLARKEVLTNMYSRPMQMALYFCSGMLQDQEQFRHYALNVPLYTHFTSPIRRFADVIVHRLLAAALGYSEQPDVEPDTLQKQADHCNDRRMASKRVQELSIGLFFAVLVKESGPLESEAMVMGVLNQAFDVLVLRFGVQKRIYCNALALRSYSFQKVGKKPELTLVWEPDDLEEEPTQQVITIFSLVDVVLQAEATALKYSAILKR
The data set is described as follows: X-ray crystallography.

The target in data set [5] is T1, Dis3L2 wild type. The data set is described as follows: filter binding. This is another data set of the same source.

Where two headings read alike, the source gives them in different places.

B1: U15 (ssRNA)
RNA: UUUUUUUUUUUUUUU
Regarding B1, the binding result with Dis3L2 wild type [1] is recorded as “binds”.

B2: pre-let-7 (pre-let7a1) (structured_RNA)
RNA: UGAGGUAGUAGGUUGUAUAGUUUUAGGGUCACACCCACCACUGGGAGAUAACUAUACAAUCUACUGUCUUUC
In the case of B2, the binding signal with Dis3L2 wild type [2] was 10 fold weaker than pre-let-7-U15.

B3: A15 (ssRNA)
RNA: AAAAAAAAAAAAAAA
For B3, the binding signal with Dis3L2 wild type [3] was over 200 fold weaker than U15.

B4: U13 (ssRNA)
RNA: UUUUUUUUUUUUU
For B4, the binding result in data set [4] was “binds”.

B5: deoxyU15 (ssDNA)
DNA: UUUUUUUUUUUUUUU
modifications: 2'-deoxyuridine at all positions
B5: the binding result in the data set with Dis3L2 wild type [5] is listed as “binds”.

B6: C15 (ssRNA)
RNA: CCCCCCCCCCCCCCC
Consider B6, for which the binding signal with Dis3L2 wild type [3] is over 200 fold weaker than U15.

The values are drawn from paper PMC4192074.
